± gives the standard deviation of the averaged measurements.
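Note: PSI is a weighted mean of sequencing reads over stability bins, variants kept only with over 10 reads, mCherry proximal and sfGFP distal, peptide attached via GGGS linker.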

In the series the test system is Saccharomyces cerevisiae. The series is described as follows: protein stability index of tFT-peptide fusion (C-terminal peptide) (PSI (0-1 scale)); higher = more stable (slower turnover). To be noted: genetic background: wild type; temperature: 30 C.
MRIKKQNIRNDT registered a protein stability index of 0.615 ± 0.063. In turn, MRPSLIKVFLTR registered a protein stability index of 0.632 ± 0.04.

MRRSSKPRLSLT returned a protein stability index of 0.725 ± 0.049. The sequence MSRPSLARLPAS gave a protein stability index of 0.711 ± 0.011. Then MTESLIGCLSGD, with 0.7 ± 0.0074; and MTIMPSPLGVVH, with 0.514 ± 0.055; and MTLSCGVGLTVG, with 0.6521 ± 0.0009. MVGAWCAGIPGI came in with a protein stability index of 0.668 ± 0.0022. MVMEGLRTLSCQ showed a protein stability index of 0.6589 ± 0.0061. In the case of MVRRDGMTVSLG, the protein stability index worked out at 0.719 ± 0.028. MVTWSDRVIKSW had a protein stability index of 0.733 ± 0.023. Take MVVGWGGVEPVG: the protein stability index worked out at 0.758 ± 0.048. Then MWVCGFVGGGGG, with 0.654 ± 0.035.

Take NAHHSASPSHCF: the protein stability index was determined as 0.6471 ± 0.0059. NALGRPSAFILT gave a protein stability index of 0.695 ± 0.057.

On to NAVSFVKGRLVY, for which the protein stability index stood at 0.657 ± 0.028. NCSSNNRQSENI showed a protein stability index of 0.644 ± 0.017. For the sequence NDNNSRSGRRIF, the protein stability index was 0.66 ± 0.019.

Turning to NDRLDRRDWWEG, the protein stability index worked out at 0.695 ± 0.022. Then NELRTFLGDRDI, with 0.675 ± 0.043. The same measure for NEPNIRDRSIFS: 0.688 ± 0.015; for NEQPSKLLAKEC: 0.866 ± 0.13; for NFRTHRHLVARS: 0.762 ± 0.019. Take NGISQWMGIGGQ: the protein stability index came out at 0.667 ± 0.011. The same measure for NGRNKKRKCLQT: 0.706 ± 0.086. With NGSIENIAKRKK, the protein stability index was 0.639 ± 0.077. NGTGGASSLAFG yielded a protein stability index of 0.689 ± 0.052. Consider NGTGGVSSLAFG, for which the protein stability index came out at 0.6399 ± 0.0013. Sequence NHRANKIRKCKD had a protein stability index of 0.6298 ± 0.0016. As to NIAGHLHQPVQM, the protein stability index turned out to be 0.712 ± 0.029. Consider NIGVKNVVLVEG, for which the protein stability index was determined as 0.537 ± 0.043. In turn, NIRLRRKIIINK registered a protein stability index of 0.562 ± 0.088. NKEIKKIRIKKE gave a protein stability index of 0.664 ± 0.076. In turn, NKIRIIQVNLNR displayed a protein stability index of 0.699 ± 0.17. NKKIEDYDKNKN displayed a protein stability index of 0.6835 ± 0.00098. On to NKKKGYRKKQNH, for which the protein stability index was determined as 0.567 ± 0.032. The same measure for NKKKKETKNAQQ: 0.698 ± 0.013.

With NKKKNKKIRQEK, the protein stability index came out at 0.685 ± 0.017. Then NKNKENMKRKTK, with 0.682 ± 0.039; and NKNKKKIKHKRK, with 0.669 ± 0.051. In the case of NKQNKEIQPKRK, the protein stability index is 0.653 ± 0.021. NKQTAEIGRGSC came in with a protein stability index of 0.651 ± 0.03. The sequence NKRCRNITIQRA displayed a protein stability index of 0.73379 ± 0.00047. In turn, NKRLKNKIKRIK showed a protein stability index of 0.651 ± 0.037.

As to NLPLVDIIPISN, the protein stability index was 0.828 ± 0.025.

The sequence NNSLPTDVDKYL returned a protein stability index of 0.683 ± 0.019.

On to NPYKREKKKNKK, for which the protein stability index is 0.787 ± 0.14.

The sequence NQKEIKYTLKYI displayed a protein stability index of 0.684 ± 0.018.

Consider NQVNEELDKKGH, for which the protein stability index was determined as 0.719 ± 0.14.

NRQDASAPVCLL: the protein stability index came to 0.719 ± 0.049. As for NRRPLVQNGKLF, the protein stability index was determined as 0.67849 ± 0.00026. NRVRVNSSYGRD had a protein stability index of 0.71 ± 0.018. NSGSRGTRVVGL: the protein stability index amounted to 0.705 ± 0.084. In the case of NSKGKKFKCLKK, the protein stability index is 0.766 ± 0.0099. For the sequence NSSEIGQNADTA, the protein stability index is 0.672 ± 0.025.

For NTRKIEAVGSER, the protein stability index stood at 0.658 ± 0.024. The same measure for NTTKLEKRGNIE: 0.574 ± 0.084; for NVGEWGTAVMSR: 0.684 ± 0.034; for NVLIASGIEVKK: 0.629 ± 0.0099.

Take NVTIRVAIRYHE: the protein stability index was 0.575 ± 0.021. As to NVWGTGGMCTFV, the protein stability index is 0.7058 ± 0.0019. In the case of NWRAAGQSGPES, the protein stability index was 0.67 ± 0.012. The same measure for NYKVRKQKVDRN: 0.674 ± 0.062. Turning to PACPPTSDFPSL, the protein stability index was determined as 0.623 ± 0.073.
